In PMC9352680, “A comprehensive thermodynamic model for RNA binding by the Saccharomyces cerevisiae Pumilio protein PUF4”:

T1: PUF4 RNA-binding domain (Saccharomyces cerevisiae, UniProt P25339 537-888)
T1 sequence: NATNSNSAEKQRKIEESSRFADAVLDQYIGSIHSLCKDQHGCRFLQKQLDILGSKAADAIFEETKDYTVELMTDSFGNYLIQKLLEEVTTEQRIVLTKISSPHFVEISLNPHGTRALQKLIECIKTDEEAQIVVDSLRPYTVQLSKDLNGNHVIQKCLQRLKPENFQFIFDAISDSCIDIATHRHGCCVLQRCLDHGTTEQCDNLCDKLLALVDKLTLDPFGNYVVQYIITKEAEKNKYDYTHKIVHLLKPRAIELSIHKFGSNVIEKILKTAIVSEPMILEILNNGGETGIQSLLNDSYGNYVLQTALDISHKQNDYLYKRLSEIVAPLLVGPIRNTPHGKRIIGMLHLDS


Target: T1, PUF4 RNA-binding domain
Experiment: Mg; RNA-MaP; 20 mM Na-HEPES pH 7.4, 30 mM KOAc, 0.75 mM MgCl2, 0.1% Tween-20, 5% glycerol, 0.1 mg/mL BSA, 2 mM DTT; 25 C; 0.0125-409.6 nM protein
Conditions: tags: N-His6-TEV cleaved; C-SNAP kept, Cy3B-labelled; label: tethered on chip by stalled RNA polymerase

Row | Binder | Kd
1 | UCUCUUAUACACUAUUACAUCUCUU (ssRNA) [Id_ii_S1_P4E.4_K4.3_C4.2_[C-2A]_H4.3_A4.1_F4.1_T4.2_[G10C]_[T11A]] | 29.6 nM
2 | UCUCUUCGACACUAUUACAUCUCUU (ssRNA) [Id_ii_S1_P4E.4_K4.3_C4.2_[T-1G]_H4.3_A4.1_F4.1_T4.2_[G10C]_[T11A]] | > 2300 nM
3 | UCUCUUGCUGUAUUAUUAUUUCUCUU (ssRNA) [Id_ii_S1_P5E.2_K5.1_C5.2_[C-2G]_[T-1C]_H5.1_A5.1_F5.1_T5.2_[A12T]] | 10.5 nM
4 | UCUCUUACACACUAUUAGCUCUCUU (ssRNA) [Id_ii_S1_P4E.4_K4.3_C4.2_[C-2A]_[T-1C]_H4.3_A4.1_F4.1_T4.2_[T11C]] | > 2300 nM
5 | UCUCUUCGACACUAUUAUCUCUCUU (ssRNA) [Id_ii_S1_P4E.4_K4.3_C4.2_[T-1G]_H4.3_A4.1_F4.1_T4.2_[G10T]_[T11C]] | > 2300 nM
6 | UCUCUUCAACACUAUUACUUCUCUU (ssRNA) [Id_ii_S1_P4E.4_K4.3_C4.2_[T-1A]_H4.3_A4.1_F4.1_T4.2_[G10C]] | > 2300 nM
7 | UCUCUUCUACACUAUUAUUUCUCUU (ssRNA) [Id_ii_S1_P4E.4_K4.3_C4.2_H4.3_A4.1_F4.1_T4.2_[G10T]] | > 2300 nM
8 | UCUCUUCCACACUAUUAGUUCUCUU (ssRNA) [Id_ii_S1_P4E.4_K4.3_C4.2_[T-1C]_H4.3_A4.1_F4.1_T4.2] | > 2300 nM
9 | UCUCUUCCACACUAUUAUAUCUCUU (ssRNA) [Id_ii_S1_P4E.4_K4.3_C4.2_[T-1C]_H4.3_A4.1_F4.1_T4.2_[G10T]_[T11A]] | > 2300 nM
10 | UCUCUUCAACACUAUUAUAUCUCUU (ssRNA) [Id_ii_S1_P4E.4_K4.3_C4.2_[T-1A]_H4.3_A4.1_F4.1_T4.2_[G10T]_[T11A]] | > 2300 nM
11 | UCUCUUGUUGUAUUAUUAAUUCUCUU (ssRNA) [Id_ii_S1_P5E.2_K5.1_C5.2_[C-2G]_H5.1_A5.1_F5.1_T5.2_[T11A]_[A12T]] | 9.79 nM
12 | UCUCUUCCACACUAUUACUUCUCUU (ssRNA) [Id_ii_S1_P4E.4_K4.3_C4.2_[T-1C]_H4.3_A4.1_F4.1_T4.2_[G10C]] | > 2300 nM
13 | UCUCUUAUACACUAUUACCUCUCUU (ssRNA) [Id_ii_S1_P4E.4_K4.3_C4.2_[C-2A]_H4.3_A4.1_F4.1_T4.2_[G10C]_[T11C]] | 26.4 nM
14 | UCUCUUCCACACUAUUAAAUCUCUU (ssRNA) [Id_ii_S1_P4E.4_K4.3_C4.2_[T-1C]_H4.3_A4.1_F4.1_T4.2_[G10A]_[T11A]] | > 2300 nM
15 | UCUCUUACACACUAUUAACUCUCUU (ssRNA) [Id_ii_S1_P4E.4_K4.3_C4.2_[C-2A]_[T-1C]_H4.3_A4.1_F4.1_T4.2_[G10A]_[T11C]] | > 2300 nM
16 | UCUCUUAUACACUAUUACUUCUCUU (ssRNA) [Id_ii_S1_P4E.4_K4.3_C4.2_[C-2A]_H4.3_A4.1_F4.1_T4.2_[G10C]] | 31.1 nM

Row | Binder | Kd
17 | UCUCUUCAACACUAUUACGUCUCUU (ssRNA) [Id_ii_S1_P4E.4_K4.3_C4.2_[T-1A]_H4.3_A4.1_F4.1_T4.2_[G10C]_[T11G]] | > 2300 nM
18 | UCUCUUCGACACUAUUAACUCUCUU (ssRNA) [Id_ii_S1_P4E.4_K4.3_C4.2_[T-1G]_H4.3_A4.1_F4.1_T4.2_[G10A]_[T11C]] | > 2300 nM
19 | UCUCUUCUACACUAUUAUAUCUCUU (ssRNA) [Id_ii_S1_P4E.4_K4.3_C4.2_H4.3_A4.1_F4.1_T4.2_[G10T]_[T11A]] | 965 nM
20 | UCUCUUGUUGUAUUAUUAAAUCUCUU (ssRNA) [Id_ii_S1_P5E.2_K5.1_C5.2_[C-2G]_H5.1_A5.1_F5.1_T5.2_[T11A]] | 11.7 nM
21 | UCUCUUAAACACUAUUAUCUCUCUU (ssRNA) [Id_ii_S1_P4E.4_K4.3_C4.2_[C-2A]_[T-1A]_H4.3_A4.1_F4.1_T4.2_[G10T]_[T11C]] | > 2300 nM
22 | UCUCUUAUACACUAUUAGCUCUCUU (ssRNA) [Id_ii_S1_P4E.4_K4.3_C4.2_[C-2A]_H4.3_A4.1_F4.1_T4.2_[T11C]] | 49.5 nM
23 | UCUCUUCAACACUAUUAAUUCUCUU (ssRNA) [Id_ii_S1_P4E.4_K4.3_C4.2_[T-1A]_H4.3_A4.1_F4.1_T4.2_[G10A]] | > 2300 nM
24 | UCUCUUAAACACUAUUAAAUCUCUU (ssRNA) [Id_ii_S1_P4E.4_K4.3_C4.2_[C-2A]_[T-1A]_H4.3_A4.1_F4.1_T4.2_[G10A]_[T11A]] | > 2300 nM
25 | UCUCUUCCACACUAUUACCUCUCUU (ssRNA) [Id_ii_S1_P4E.4_K4.3_C4.2_[T-1C]_H4.3_A4.1_F4.1_T4.2_[G10C]_[T11C]] | > 2300 nM
26 | UCUCUUGUUGUAUUAUUAUUUCUCUU (ssRNA) [Id_ii_S1_P5E.2_K5.1_C5.2_[C-2G]_H5.1_A5.1_F5.1_T5.2_[A12T]] | 6.28 nM
27 | UCUCUUUGUGUAUUAUUAGUUCUCUU (ssRNA) [Id_ii_S1_P5E.2_K5.1_C5.2_[C-2T]_[T-1G]_H5.1_A5.1_F5.1_T5.2_[T11G]_[A12T]] | 2.43 nM
28 | UCUCUUACACACUAUUACCUCUCUU (ssRNA) [Id_ii_S1_P4E.4_K4.3_C4.2_[C-2A]_[T-1C]_H4.3_A4.1_F4.1_T4.2_[G10C]_[T11C]] | > 2300 nM
29 | UCUCUUUGUACGUUAUCUCUU (ssRNA) [Ic_S1_P4E.1_K4.1_C4.1_H4.1_A4.1_[T5C]_[A6G]_F4.1_T4.1] | 4.05 nM
30 | UCUCUUCAACACUAUUAGUUCUCUU (ssRNA) [Id_ii_S1_P4E.4_K4.3_C4.2_[T-1A]_H4.3_A4.1_F4.1_T4.2] | > 2300 nM
31 | UCUCUUCGACACUAUUACCUCUCUU (ssRNA) [Id_ii_S1_P4E.4_K4.3_C4.2_[T-1G]_H4.3_A4.1_F4.1_T4.2_[G10C]_[T11C]] | > 2300 nM
